{"source": "patent US20230212549A1", "about": "“COMPOUNDS COMPRISING A […] LIGAND AND USE THEREOF” (priority 2021, published 2023)", "molecular_target": "T1, DPP3, Q9NY33", "T1 chain": "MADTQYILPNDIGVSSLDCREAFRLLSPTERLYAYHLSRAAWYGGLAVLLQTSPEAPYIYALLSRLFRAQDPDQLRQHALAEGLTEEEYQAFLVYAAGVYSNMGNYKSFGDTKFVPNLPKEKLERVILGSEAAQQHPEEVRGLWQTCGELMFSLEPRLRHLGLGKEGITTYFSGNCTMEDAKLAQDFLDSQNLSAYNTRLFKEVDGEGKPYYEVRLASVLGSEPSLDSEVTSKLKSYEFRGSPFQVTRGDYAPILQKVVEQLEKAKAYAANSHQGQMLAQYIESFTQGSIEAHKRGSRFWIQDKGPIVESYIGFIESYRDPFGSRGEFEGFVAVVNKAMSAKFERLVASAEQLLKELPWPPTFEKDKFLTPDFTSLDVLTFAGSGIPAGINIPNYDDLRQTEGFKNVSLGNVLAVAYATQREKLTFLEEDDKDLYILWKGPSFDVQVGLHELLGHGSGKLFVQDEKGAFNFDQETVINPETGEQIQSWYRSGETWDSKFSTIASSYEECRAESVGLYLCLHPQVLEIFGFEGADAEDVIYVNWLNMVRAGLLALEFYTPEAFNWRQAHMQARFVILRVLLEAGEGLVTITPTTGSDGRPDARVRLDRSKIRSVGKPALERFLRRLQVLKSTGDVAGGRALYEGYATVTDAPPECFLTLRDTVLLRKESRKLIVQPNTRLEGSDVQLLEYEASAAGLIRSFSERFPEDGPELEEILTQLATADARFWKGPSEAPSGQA", "test": "cell-based or functional assay", "note": "Bridge positions count the residues as written; N and C are the ends.", "data": [{"binder": "Hex-CPPTQFC-OH (bridge 1-7; not fully specified (bridges); printed as Hex-[Cys(tMeBn(DOTA-AET))-Pro-Pro-Thr-Gln-Phe-Cys]-OH)", "note": "[Hex-[Cys(tMeBn(DOTA-AET))-Pro-Pro-Thr-Gln-Phe-Cys]-OH]", "values": [{"measurement": "Percentage inhibition (%) at 1 µM", "value": 2, "unit": "%"}, {"measurement": "Percentage inhibition (%) at 10 µM", "value": -1, "unit": "%"}]}]}
